For one substance, Kd and fold increase in KD against WT nsp1 results are on record in paper PMC8481097.

What all share (test): fluorescence polarisation
In experiment [1] the target is TAMRA-labeled SARS-CoV-2 nsp1 C-K (wild type) (SARS-CoV-2) (UniProt P0DTD1).
Experiment [2] addresses TAMRA-labeled SARS-CoV-2 nsp1 R124A/K125A (SARS-CoV-2) (UniProt P0DTD1).
The target in experiment [3] is TAMRA-labeled SARS-CoV-2 nsp1 R99A (SARS-CoV-2) (UniProt P0DTD1).

As a reminder, the Kd is a measure of binding affinity in units of concentration. A high value points to lower affinity. In experiment [1], “purified ribosomes (crude 80S from HeLa cell lysate) (complex)” came in with a dissociation constant Kd of 29.4 nM. Moreover, the figures for the fold increase in KD against WT nsp1 in experiment [2] and in experiment [3] were 2.2 fold and 1.8 fold, respectively.
